Results published in article PMC6212786 (Nucleic Acids Research, 2018).

T1: Full-length wild-type T4 DNA ligase (gp30) (bacteriophage T4, UniProt P00970 1-487)
T1 sequence (looked up): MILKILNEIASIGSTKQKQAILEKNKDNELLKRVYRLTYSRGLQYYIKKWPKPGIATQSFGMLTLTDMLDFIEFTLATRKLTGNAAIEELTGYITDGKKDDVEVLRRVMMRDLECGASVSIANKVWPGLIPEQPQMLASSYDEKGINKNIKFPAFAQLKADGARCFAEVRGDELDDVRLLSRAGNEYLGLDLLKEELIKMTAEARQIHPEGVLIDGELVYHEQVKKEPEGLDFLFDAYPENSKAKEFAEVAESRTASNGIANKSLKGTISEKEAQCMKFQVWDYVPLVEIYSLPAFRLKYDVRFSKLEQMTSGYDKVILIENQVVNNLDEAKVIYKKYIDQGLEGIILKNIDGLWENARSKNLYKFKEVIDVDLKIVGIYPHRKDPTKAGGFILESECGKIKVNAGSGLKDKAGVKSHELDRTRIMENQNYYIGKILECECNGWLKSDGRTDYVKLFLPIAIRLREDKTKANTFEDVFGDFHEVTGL

B1: T4 sliding clamp gp45, full length (trimer) (natural protein, bacteriophage T4, UniProt P04525 1-228, looked up)
chain: MKLSKDTTALLKNFATINSGIMLKSGQFIMTRAVNGTTYAEANISDVIDFDVAIYDLNGFLGILSLVNDDAEISQSEDGNIKIADARSTIFWPAADPSTVVAPNKPIPFPVASAVTEIKAEDLQQLLRVSRGLQIDTIAITVKEGKIVINGFNKVEDSALTRVKYSLTLGDYDGENTFNFIINMANMKMQPGNYKLLLWAKGKQGAAKFEGEHANYVVALEADSTHDF

Tests used:
[1] = molecular target: B1; test: ITC
[2] = molecular target: T1, Full-length wild-type T4 DNA ligase …; test: SEC

| Binder | Kd [1] | stoichiometry N [1] | binding result [2] |
| --- | --- | --- | --- |
| KKEPEGLDFLFDA [T4 ligase loop peptide KKEPEGLDFLFDA] | 10.7 µM | 3 peptides per gp45 trimer |  |
| B1 |  |  | binds |
